Test results from patent publication US20170313764A1 (ACADEMISCH MEDISCH CENTRUM, published 2017).

Legend:
Experiment in all cases: ELISA, GNA-captured E1E2 lysate; EC50 wild type / EC50 mutant
[1] = molecular target: E1E2 of HCV isolate H77 with single mutation N209A (in E1) (Hepatitis C virus genotype 1a, strain …, UniProt P27958 192-383; P27958 384-746)
[2] = molecular target: E1E2 of HCV isolate H77 with single mutation W420A (Hepatitis C virus genotype 1a, strain …, UniProt P27958 192-383; P27958 384-746)
[3] = molecular target: E1E2 of HCV isolate H77 with single mutation A439G (Hepatitis C virus genotype 1a, strain …, UniProt P27958 192-383; P27958 384-746)
[4] = molecular target: E1E2 of HCV isolate H77 with single mutation P676A (Hepatitis C virus genotype 1a, strain …, UniProt P27958 192-383; P27958 384-746)
[5] = molecular target: E1E2 of HCV isolate H77 with single mutation D533A (Hepatitis C virus genotype 1a, strain …, UniProt P27958 192-383; P27958 384-746)
[6] = molecular target: E1E2 of HCV isolate H77 with single mutation N415A (Hepatitis C virus genotype 1a, strain …, UniProt P27958 192-383; P27958 384-746)
[7] = molecular target: E1E2 of HCV isolate H77 with single mutation P612A (Hepatitis C virus genotype 1a, strain …, UniProt P27958 192-383; P27958 384-746)
[8] = molecular target: E1E2 of HCV isolate H77 with single mutation G436A (Hepatitis C virus genotype 1a, strain …, UniProt P27958 192-383; P27958 384-746)
[9] = molecular target: E1E2 of HCV isolate H77 with single mutation S424A (Hepatitis C virus genotype 1a, strain …, UniProt P27958 192-383; P27958 384-746)
[10] = molecular target: E1E2 of HCV isolate H77 with single mutation G418A (Hepatitis C virus genotype 1a, strain …, UniProt P27958 192-383; P27958 384-746)
[11] = molecular target: E1E2 of HCV isolate H77 with single mutation L441A (Hepatitis C virus genotype 1a, strain …, UniProt P27958 192-383; P27958 384-746)
[12] = molecular target: E1E2 of HCV isolate H77 with single mutation T526A (Hepatitis C virus genotype 1a, strain …, UniProt P27958 192-383; P27958 384-746)
[13] = molecular target: E1E2 of HCV isolate H77 with single mutation N325A (in E1) (Hepatitis C virus genotype 1a, strain …, UniProt P27958 192-383; P27958 384-746)
[14] = molecular target: E1E2 of HCV isolate H77 with single mutation D698A (Hepatitis C virus genotype 1a, strain …, UniProt P27958 192-383; P27958 384-746)
[15] = molecular target: E1E2 of HCV isolate H77 with single mutation G530A (Hepatitis C virus genotype 1a, strain …, UniProt P27958 192-383; P27958 384-746)
[16] = molecular target: E1E2 of HCV isolate H77 with single mutation D535A (Hepatitis C virus genotype 1a, strain …, UniProt P27958 192-383; P27958 384-746)
[17] = molecular target: E1E2 of HCV isolate H77 with single mutation F442A (Hepatitis C virus genotype 1a, strain …, UniProt P27958 192-383; P27958 384-746)
[18] = molecular target: E1E2 of HCV isolate H77 with single mutation Y443A (Hepatitis C virus genotype 1a, strain …, UniProt P27958 192-383; P27958 384-746)
[19] = molecular target: E1E2 of HCV isolate H77 with single mutation L413A (Hepatitis C virus genotype 1a, strain …, UniProt P27958 192-383; P27958 384-746)
[20] = molecular target: E1E2 of HCV isolate H77 with single mutation N532A (Hepatitis C virus genotype 1a, strain …, UniProt P27958 192-383; P27958 384-746)
[21] = molecular target: E1E2 of HCV isolate H77 with single mutation Y527A (Hepatitis C virus genotype 1a, strain …, UniProt P27958 192-383; P27958 384-746)

| Binder | relative binding, mutant vs wild type [1] [%] | relative binding, mutant vs wild type [2] [%] | relative binding, mutant vs wild type [3] [%] | relative binding, mutant vs wild type [4] [%] | relative binding, mutant vs wild type [5] [%] | relative binding, mutant vs wild type [6] [%] | relative binding, mutant vs wild type [7] [%] | relative binding, mutant vs wild type [8] [%] | relative binding, mutant vs wild type [9] [%] | relative binding, mutant vs wild type [10] [%] | relative binding, mutant vs wild type [11] [%] | relative binding, mutant vs wild type [12] [%] | relative binding, mutant vs wild type [13] [%] | relative binding, mutant vs wild type [14] [%] | relative binding, mutant vs wild type [15] [%] | relative binding, mutant vs wild type [16] [%] | relative binding, mutant vs wild type [17] [%] | relative binding, mutant vs wild type [18] [%] | relative binding, mutant vs wild type [19] [%] | relative binding, mutant vs wild type [20] [%] | further results |
| --- | --- | --- | --- | --- | --- | --- | --- | --- | --- | --- | --- | --- | --- | --- | --- | --- | --- | --- | --- | --- | --- |
| AT15-012 (antibody, V domains shown, also called AT15-12) VH: QVQLVQSGAEVKKPGSSVKVSCKASGGNFNIFPITWVRQAPGQGLEWMGEIIPMLGTPEYAQKFQGRVTITADKSTGTAFMELSSLRSEDTAVYYCARTETTLPGTLFFVYYFHFWGQGTPVTVSS VL: EIVMTQSPVTLSVSPGERAILSCRASQSVSSSLAWYQQKPGQAPRLLIYGASTRATGVPARFSGSGSGTEFTLTISSVQSEDYAIYFCQQYNDRPPWTFGQGTKVEIK | 99 | 111 | 94 | 92 | 82 | 101 | 81 | 91 | 67 | 124 | 83 | 82 | 94 | 117 | 48 | 52 | 60 | 103 | 132 | 125 | relative binding, mutant vs wild type [21]: 76% |
| AT15-009 (antibody, V domains shown) VH: QVLLVQSGAEVKKPGSSVKVSCKASGGTFSTYAISWLRQAPGQGPEWMGGIVPMFGITNYAQHFQGRITITADKSTSTAYMELSSLGSEDTAVYFCARDLRSGGTFFSRGFDLWGPGTKVTVSS VL: EIVLTQSPGTLSLSPGERATLSCRASQSVSSSFLTWYQQKPGQAPRLLIFDASTRATGVPDRFSGSGSGTDFTLTISRLEPEDFGVYYCQQFDSSPTFGGGTKVEIK | 105 | 102 | 97 | 102 | 94 | 116 | 94 | 93 | 106 | 112 | 57 | 87 | 103 | 116 | 52 | 55 | 27 | 64 | 112 | 118 | relative binding, mutant vs wild type [21]: 84% |
